Target: the molecule itself
Test: SEC-MALS

B1: MexT regulatory domain (domain or fragment, Pseudomonas aeruginosa, UniProt Q9I0Z0 95-304, looked up)
chain: PATSTAVFRIGLSDDVEFGLLPPLLRRLRAEAPGIVLVVRRANYLLMPNLLASGEISVGVSYTDELPANAKRKTVRRSKPKILRADSAPGQLTLDDYCARPHALVSFAGDLSGFVDEELEKFGRKRKVVLAVPQFNGLGTLLAGTDIIATVPDYAAQALIAAGGLRAEDPPFETRAFELSMAWRGAQDNDPAERWLRSRISMFIGDPDSL
stoichiometry N: 2
